# Reference: the supplement of paper PMC9112550, “Optimization of the antimicrobial peptide Bac7 by deep mutational scanning” (BMC Biology, 2022)
# Test system: Escherichia coli TOP10
# Test: shrunken log2 fold change of peptide-encoding DNA abundance (4.5 h post-induction vs induction); higher = less antimicrobial activity (less host growth inhibition)
# Conditions: time post-induction: 4.5 h; library: site-saturation at positions 5, 18, 19, 20
# 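Note: peptides expressed intracellularly from a pBAD plasmid library in pooled LB shake-flask culture, induced with 0.3% L-arabinose, DNA abundance read by NGS, three biological replicates, DESeq2 with apeglm shrinkage.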
row,Sequence,shrunken log2 fold change
1,RRIRNRPPRLPRPRPRPCVDPRP,0.037
2,RRIRNRPPRLPRPRPRPCVHPRP,-0.0018
3,RRIRNRPPRLPRPRPRPCWPPRP,0.274
4,RRIRNRPPRLPRPRPRPCYPPRP,-0.318
5,RRIRNRPPRLPRPRPRPCYVPRP,-0.0102
6,RRIRNRPPRLPRPRPRPDCLPRP,0.0127
7,RRIRNRPPRLPRPRPRPDDIPRP,0.0399
8,RRIRNRPPRLPRPRPRPDDTPRP,0.0119
9,RRIRNRPPRLPRPRPRPDDVPRP,-0.0233
10,RRIRNRPPRLPRPRPRPDEPPRP,-0.061
11,RRIRNRPPRLPRPRPRPDFMPRP,-0.138
12,RRIRNRPPRLPRPRPRPDFSPRP,-0.0911
13,RRIRNRPPRLPRPRPRPDIKPRP,-0.171
14,RRIRNRPPRLPRPRPRPDKMPRP,0.0206
15,RRIRNRPPRLPRPRPRPDKYPRP,-0.665
16,RRIRNRPPRLPRPRPRPDLFPRP,-0.00884
17,RRIRNRPPRLPRPRPRPDLIPRP,-0.172
18,RRIRNRPPRLPRPRPRPDLSPRP,-0.0537
19,RRIRNRPPRLPRPRPRPDMYPRP,-0.00473
20,RRIRNRPPRLPRPRPRPDPIPRP,-0.143
21,RRIRNRPPRLPRPRPRPDPMPRP,-0.177
22,RRIRNRPPRLPRPRPRPDPTPRP,0.0817
23,RRIRNRPPRLPRPRPRPDPWPRP,0.106
24,RRIRNRPPRLPRPRPRPDQDPRP,-0.00104
25,RRIRNRPPRLPRPRPRPDQGPRP,-0.257

row,Sequence,shrunken log2 fold change
1,RRIRNRPPRLPRPRPRPDQHPRP,-0.34
2,RRIRNRPPRLPRPRPRPDQLPRP,0.0418
3,RRIRNRPPRLPRPRPRPDQMPRP,0.0898
4,RRIRNRPPRLPRPRPRPDRRPRP,-0.115
5,RRIRNRPPRLPRPRPRPDSCPRP,-0.00192
6,RRIRNRPPRLPRPRPRPDSKPRP,-0.335
7,RRIRNRPPRLPRPRPRPDSQPRP,-0.0699
8,RRIRNRPPRLPRPRPRPDSSPRP,-0.00145
9,RRIRNRPPRLPRPRPRPDTKPRP,-0.0152
10,RRIRNRPPRLPRPRPRPDTLPRP,-0.0286
11,RRIRNRPPRLPRPRPRPDTNPRP,-0.141
12,RRIRNRPPRLPRPRPRPDTQPRP,-0.149
13,RRIRNRPPRLPRPRPRPDVFPRP,-0.199
14,RRIRNRPPRLPRPRPRPDYYPRP,-1.4
15,RRIRNRPPRLPRPRPRPEADPRP,0.0747
16,RRIRNRPPRLPRPRPRPEAPPRP,3.17
17,RRIRNRPPRLPRPRPRPEATPRP,0.556
18,RRIRNRPPRLPRPRPRPEDPPRP,0.00956
19,RRIRNRPPRLPRPRPRPEFKPRP,-0.0932
20,RRIRNRPPRLPRPRPRPEFNPRP,-0.0322
21,RRIRNRPPRLPRPRPRPEFWPRP,0.0698
22,RRIRNRPPRLPRPRPRPEHRPRP,-0.226
23,RRIRNRPPRLPRPRPRPEIPPRP,-0.113
24,RRIRNRPPRLPRPRPRPELRPRP,0.0572
25,RRIRNRPPRLPRPRPRPEMAPRP,0.321

row,Sequence,shrunken log2 fold change
1,RRIRNRPPRLPRPRPRPEMNPRP,0.0511
2,RRIRNRPPRLPRPRPRPEMTPRP,-0.059
3,RRIRNRPPRLPRPRPRPENTPRP,-0.803
4,RRIRNRPPRLPRPRPRPEQEPRP,0.0175
5,RRIRNRPPRLPRPRPRPERHPRP,0.204
6,RRIRNRPPRLPRPRPRPESAPRP,-0.0184
7,RRIRNRPPRLPRPRPRPESMPRP,0.669
8,RRIRNRPPRLPRPRPRPETGPRP,2.57
9,RRIRNRPPRLPRPRPRPETKPRP,0.384
10,RRIRNRPPRLPRPRPRPETNPRP,0.196
11,RRIRNRPPRLPRPRPRPEVMPRP,0.0307
12,RRIRNRPPRLPRPRPRPEYYPRP,-0.0216
13,RRIRNRPPRLPRPRPRPFAFPRP,-0.74
14,RRIRNRPPRLPRPRPRPFAVPRP,-0.398
15,RRIRNRPPRLPRPRPRPFCPPRP,-0.278
16,RRIRNRPPRLPRPRPRPFDGPRP,-0.0509
17,RRIRNRPPRLPRPRPRPFDQPRP,-0.0155
18,RRIRNRPPRLPRPRPRPFEAPRP,0.0104
19,RRIRNRPPRLPRPRPRPFEEPRP,0.0129
20,RRIRNRPPRLPRPRPRPFEPPRP,-0.181
21,RRIRNRPPRLPRPRPRPFFAPRP,0.201
22,RRIRNRPPRLPRPRPRPFKNPRP,0.0633
23,RRIRNRPPRLPRPRPRPFKTPRP,-0.0614
24,RRIRNRPPRLPRPRPRPFLEPRP,0.0329
25,RRIRNRPPRLPRPRPRPFMQPRP,-0.194

row,Sequence,shrunken log2 fold change
1,RRIRNRPPRLPRPRPRPFNAPRP,-0.257
2,RRIRNRPPRLPRPRPRPFQSPRP,-0.0983
3,RRIRNRPPRLPRPRPRPFSSPRP,-0.0316
4,RRIRNRPPRLPRPRPRPFSTPRP,-0.226
5,RRIRNRPPRLPRPRPRPFTFPRP,-0.628
6,RRIRNRPPRLPRPRPRPFTLPRP,-0.884
7,RRIRNRPPRLPRPRPRPFVRPRP,-0.0373
8,RRIRNRPPRLPRPRPRPFYGPRP,-0.107
9,RRIRNRPPRLPRPRPRPFYQPRP,-0.8
10,RRIRNRPPRLPRPRPRPFYSPRP,0.0464
11,RRIRNRPPRLPRPRPRPGAHPRP,0.0408
12,RRIRNRPPRLPRPRPRPGAMPRP,0.101
13,RRIRNRPPRLPRPRPRPGCAPRP,0.426
14,RRIRNRPPRLPRPRPRPGCCPRP,-0.0641
15,RRIRNRPPRLPRPRPRPGCLPRP,-0.000466
16,RRIRNRPPRLPRPRPRPGCPPRP,-0.055
17,RRIRNRPPRLPRPRPRPGDAPRP,0.102
18,RRIRNRPPRLPRPRPRPGFGPRP,0.25
19,RRIRNRPPRLPRPRPRPGFTPRP,0.0826
20,RRIRNRPPRLPRPRPRPGGEPRP,-0.0266
21,RRIRNRPPRLPRPRPRPGGIPRP,-0.109
22,RRIRNRPPRLPRPRPRPGGTPRP,0.154
23,RRIRNRPPRLPRPRPRPGHHPRP,-0.00875
24,RRIRNRPPRLPRPRPRPGHRPRP,0.00909
25,RRIRNRPPRLPRPRPRPGKAPRP,-0.181

row,Sequence,shrunken log2 fold change
1,RRIRNRPPRLPRPRPRPGMCPRP,-0.0316
2,RRIRNRPPRLPRPRPRPGMSPRP,-0.238
3,RRIRNRPPRLPRPRPRPGNGPRP,-0.462
4,RRIRNRPPRLPRPRPRPGNYPRP,0.224
5,RRIRNRPPRLPRPRPRPGPGPRP,0.274
6,RRIRNRPPRLPRPRPRPGPSPRP,0.516
7,RRIRNRPPRLPRPRPRPGQAPRP,0.0345
8,RRIRNRPPRLPRPRPRPGRRPRP,0.79
9,RRIRNRPPRLPRPRPRPGSEPRP,-0.24
10,RRIRNRPPRLPRPRPRPGSIPRP,-0.00285
11,RRIRNRPPRLPRPRPRPGSPPRP,-0.11
12,RRIRNRPPRLPRPRPRPGSTPRP,-0.145
13,RRIRNRPPRLPRPRPRPGTPPRP,0.608
14,RRIRNRPPRLPRPRPRPGTTPRP,0.0321
15,RRIRNRPPRLPRPRPRPGVIPRP,0.208
16,RRIRNRPPRLPRPRPRPGVYPRP,-0.241
17,RRIRNRPPRLPRPRPRPGWNPRP,0.324
18,RRIRNRPPRLPRPRPRPGYQPRP,-0.0454
19,RRIRNRPPRLPRPRPRPHATPRP,0.00661
20,RRIRNRPPRLPRPRPRPHCCPRP,-0.215
21,RRIRNRPPRLPRPRPRPHCMPRP,-0.251
22,RRIRNRPPRLPRPRPRPHDEPRP,-0.103
23,RRIRNRPPRLPRPRPRPHDQPRP,0.0402
24,RRIRNRPPRLPRPRPRPHFAPRP,0.0588
25,RRIRNRPPRLPRPRPRPHFTPRP,-0.0512

row,Sequence,shrunken log2 fold change
1,RRIRNRPPRLPRPRPRPHMEPRP,-0.145
2,RRIRNRPPRLPRPRPRPHMLPRP,-0.954
3,RRIRNRPPRLPRPRPRPHMRPRP,-0.00174
4,RRIRNRPPRLPRPRPRPHPCPRP,0.231
5,RRIRNRPPRLPRPRPRPHPSPRP,-0.25
6,RRIRNRPPRLPRPRPRPHPYPRP,-0.654
7,RRIRNRPPRLPRPRPRPHQKPRP,0.0226
8,RRIRNRPPRLPRPRPRPHRMPRP,-0.0233
9,RRIRNRPPRLPRPRPRPHSPPRP,-0.415
10,RRIRNRPPRLPRPRPRPHVKPRP,-0.17
11,RRIRNRPPRLPRPRPRPHWGPRP,-0.0266
12,RRIRNRPPRLPRPRPRPHWWPRP,0.127
13,RRIRNRPPRLPRPRPRPHYHPRP,-0.142
14,RRIRNRPPRLPRPRPRPHYSPRP,-0.363
15,RRIRNRPPRLPRPRPRPIAPPRP,0.0153
16,RRIRNRPPRLPRPRPRPIAYPRP,-0.0604
17,RRIRNRPPRLPRPRPRPICDPRP,-0.119
18,RRIRNRPPRLPRPRPRPICFPRP,-0.217
19,RRIRNRPPRLPRPRPRPICGPRP,-0.253
20,RRIRNRPPRLPRPRPRPICVPRP,0.111
21,RRIRNRPPRLPRPRPRPIFQPRP,-0.0287
22,RRIRNRPPRLPRPRPRPIGQPRP,-0.0958
23,RRIRNRPPRLPRPRPRPIHAPRP,-0.0866
24,RRIRNRPPRLPRPRPRPIHSPRP,-0.189
25,RRIRNRPPRLPRPRPRPIIFPRP,-1.03
